Here are results for three molecules from US10941182 (Amgen, dated 2021).

Non-standard residues stand in square brackets, D forms with d. Oic = O=C(O)[C@@H]1C[C@@H]2CCCC[C@@H]2N1; Phe(4-Cl) = N[C@@H](Cc1ccc(Cl)cc1)C(=O)O; NMeR = CN[C@@H](CCCNC(=N)N)C(=O)O; Cha = N[C@@H](CC1CCCCC1)C(=O)O; Nle = CCCC[C@H](N)C(=O)O; Aib = CC(C)(N)C(=O)O

In one test the target is T1, rat APJ receptor (rat, UniProt Q9JHG3 1-377).
T1 sequence (looked up): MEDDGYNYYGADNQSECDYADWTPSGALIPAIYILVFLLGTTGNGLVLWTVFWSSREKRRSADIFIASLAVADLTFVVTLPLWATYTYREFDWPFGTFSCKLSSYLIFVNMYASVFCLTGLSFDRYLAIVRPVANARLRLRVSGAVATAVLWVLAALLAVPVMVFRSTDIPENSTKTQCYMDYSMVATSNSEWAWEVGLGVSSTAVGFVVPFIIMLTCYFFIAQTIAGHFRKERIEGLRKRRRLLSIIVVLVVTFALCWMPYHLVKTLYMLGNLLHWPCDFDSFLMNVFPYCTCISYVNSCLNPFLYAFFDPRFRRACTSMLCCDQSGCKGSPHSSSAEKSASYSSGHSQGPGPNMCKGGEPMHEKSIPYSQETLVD
The test is described as follows: cell-based or functional assay.

Another test addresses T2, human APJ receptor (human, UniProt P35414 1-380).
T2 sequence (looked up): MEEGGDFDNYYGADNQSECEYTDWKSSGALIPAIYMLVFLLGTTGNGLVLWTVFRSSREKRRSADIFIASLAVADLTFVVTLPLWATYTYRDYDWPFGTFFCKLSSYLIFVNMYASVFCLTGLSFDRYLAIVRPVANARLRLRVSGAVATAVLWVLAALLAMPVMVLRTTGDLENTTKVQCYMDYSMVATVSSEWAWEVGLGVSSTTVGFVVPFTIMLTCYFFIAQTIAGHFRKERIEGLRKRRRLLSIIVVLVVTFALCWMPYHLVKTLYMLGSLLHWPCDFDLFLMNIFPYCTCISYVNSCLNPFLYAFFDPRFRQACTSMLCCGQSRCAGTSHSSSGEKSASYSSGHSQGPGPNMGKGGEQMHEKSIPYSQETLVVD
The test is described as follows: cell-based or functional assay.

B1: Acetylated version of peptide in Fc-peptide conjugate #3 (SEQ ID NO: 95) (peptide)
peptide: QRPRLSHKGPXPF
modifications: {Acetyl-NH}Q[NMehArg]P[NMeArg][aMeLeu]SHKGP[Nle]P[4-Cl-F]{COOH: N-terminal acetyl; NMehArg, NMeArg, aMeLeu, Nle, 4-Cl-F non-canonical; free C-terminal acid
For B1, the “EC50 Rat APJ Receptor (µM), GTPγS assay” value with rat APJ receptor was 0.00393 µM.

B2: Acetylated version of peptide in Fc-peptide conjugate #1 (SEQ ID NO: 70) (peptide)
peptide: QRPRLSHKGPXPF
modifications: {Acetyl-NH}Q[r]P[hArg][aMeLeu]SHKGP[Nle] P[4-Cl-F]{COOH}: N-terminal acetyl; r = D-Arg; hArg, aMeLeu, Nle, 4-Cl-F non-canonical; free C-terminal acid
Consider B2, for which the “EC50 Rat APJ Receptor (µM), GTPγS assay” value in the test with rat APJ receptor stood at 0.00974 µM. On to Ac-QRP[NMeR][Cha]SHKG[Oic][Nle][Aib][Phe(4-Cl)]-OH [Acetylated version of peptide in Fc-peptide conjugate #4 (SEQ ID NO: 92)], for which, in the test with rat APJ receptor, the “EC50 Rat APJ Receptor (µM), GTPγS assay” value amounted to 0.00323 µM. For the same molecule, the “EC50 Human APJ Receptor (µM), GTPγS assay” value in the test with human APJ receptor turned out to be 0.000679 µM.
